The target of the assay is T1, VEGFR1, stably expressed in PAE cells (PAE-Flt1) (UniProt P17948 27-1338, limits assumed).
T1 construct: whole, on cells
Put plainly: co-immunoprecipitation with anti-TCPTP from PAE-Flt1 cells transfected with the substrate-trapping mutant, immunoblot. For orientation: Immunoblotting shows a protein as a band on a membrane.

T1 sequence (P17948 27-1338 limits assumed): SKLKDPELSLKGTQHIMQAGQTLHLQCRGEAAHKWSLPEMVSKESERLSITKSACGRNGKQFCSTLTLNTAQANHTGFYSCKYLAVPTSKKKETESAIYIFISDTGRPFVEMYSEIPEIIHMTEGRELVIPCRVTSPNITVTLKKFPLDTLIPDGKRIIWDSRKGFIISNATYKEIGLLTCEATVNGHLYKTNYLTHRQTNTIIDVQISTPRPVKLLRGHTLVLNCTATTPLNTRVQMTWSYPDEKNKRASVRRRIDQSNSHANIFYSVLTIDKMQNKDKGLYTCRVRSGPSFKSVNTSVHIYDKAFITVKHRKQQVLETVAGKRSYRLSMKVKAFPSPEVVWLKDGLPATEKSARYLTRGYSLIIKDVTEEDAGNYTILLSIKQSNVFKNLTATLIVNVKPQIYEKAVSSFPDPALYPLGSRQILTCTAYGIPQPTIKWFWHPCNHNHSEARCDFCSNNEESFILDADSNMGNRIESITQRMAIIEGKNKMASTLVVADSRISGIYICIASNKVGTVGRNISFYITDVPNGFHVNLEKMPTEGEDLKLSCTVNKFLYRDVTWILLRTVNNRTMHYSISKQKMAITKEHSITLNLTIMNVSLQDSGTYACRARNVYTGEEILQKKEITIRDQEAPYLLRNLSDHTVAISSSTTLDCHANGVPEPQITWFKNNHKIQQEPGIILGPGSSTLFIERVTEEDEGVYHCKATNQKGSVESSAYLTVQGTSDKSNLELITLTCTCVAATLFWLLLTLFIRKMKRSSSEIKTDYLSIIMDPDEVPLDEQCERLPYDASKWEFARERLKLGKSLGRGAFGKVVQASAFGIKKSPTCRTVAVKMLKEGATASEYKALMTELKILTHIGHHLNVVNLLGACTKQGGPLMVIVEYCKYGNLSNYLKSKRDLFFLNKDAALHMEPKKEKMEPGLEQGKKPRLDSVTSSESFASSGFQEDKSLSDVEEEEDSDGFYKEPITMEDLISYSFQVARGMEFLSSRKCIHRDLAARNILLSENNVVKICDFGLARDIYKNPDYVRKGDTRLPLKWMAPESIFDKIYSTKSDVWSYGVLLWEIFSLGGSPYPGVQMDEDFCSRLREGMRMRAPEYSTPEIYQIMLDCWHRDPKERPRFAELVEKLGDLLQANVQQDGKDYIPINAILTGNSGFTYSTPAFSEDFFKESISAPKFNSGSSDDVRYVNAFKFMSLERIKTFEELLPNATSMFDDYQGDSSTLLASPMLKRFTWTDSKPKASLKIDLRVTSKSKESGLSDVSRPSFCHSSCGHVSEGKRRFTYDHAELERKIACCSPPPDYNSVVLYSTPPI
Method: Immunoprecipitations. […] After washings, the immunocomplexes were resolved on SDS-PAGE and subjected to immunoblotting. Aliquots of the original lysates (5% from IP input) were analyzed in parallel to control for protein expression.

B1: substrate-trapping mutant of TCPTP (TCPTP-D182A) (enzyme, UniProt P17706-2 1-387, looked up)
chain: MPTTIEREFEELDTQRRWQPLYLEIRNESHDYPHRVAKFPENRNRNRYRDVSPYDHSRVKLQNAENDYINASLVDIEEAQRSYILTQGPLPNTCCHFWLMVWQQKTKAVVMLNRIVEKESVKCAQYWPTDDQEMLFKETGFSVKLLSEDVKSYYTVHLLQLENINSGETRTISHFHYTTWPAFGVPESPASFLNFLFKVRESGSLNPDHGPAVIHCSAGIGRSGTFSLVDTCLVLMEKGDDINIKQVLLNMRKYRMGLIQTPDQLRFSYMAIIEGAKCIKGDSSIQKRWKELSKEDLSPAFDHSPNKIMTEKYNGNRIGLEEEKLTGDRCTGLSSKMQDTMEENSESALRKRIREDRKATTAQKVQQMKQRLNENERKRKRPRLTDT
notes: Expressed by transient transfection in HEK293 or PAE-Flt1 cells and immunoprecipitated from lysates with anti-TCPTP; also called pCG-TC45-D182A; T-cell protein tyrosine phosphatase D182A
Regarding B1, the binding result is “no binding”.

For the origin of these results see patent US20100160228A1 (VALTION TEKNILLINEN TUTKIMUSKESKUS, published 2010).
